The chains are these.
T1: fibrils of IAPP (UniProt P10997 34-70)
T1 construct: Insoluble fibrils formed by 72 h at 37 °C; also called Islet Amyloid Polypeptide
T1 peptide (looked up): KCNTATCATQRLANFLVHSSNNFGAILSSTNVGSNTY

B1: humanized anti-peptide Aβ antibody VH1VL1 (LP09027) (antibody, human IgG4 S228P, kappa, V domains shown)
VH: EVQLQQSGPEVVKPGVSVKISCKGSGYTFTDYAMHWVKQSPGKSLEWIGVISTKYGKTNYNPSFQGQATMTVDKSSSTAYMELASLKASDSAIYYCARGDDGYSWGQGTSVTVSS
VL: EIVMTQTPLSLPVSLGDRASISCRSGQSLVHSNGNTYLHWYLQKPGQSPKLLIYTVSNRFSGVPDRFSGSGSGSDFTLTISRVEAEDLGVYFCSQNTFVPWTFGGGTKLEIKR
notes: Humanized from murine antibody 13C3; Made in FreeStyle 293-F cells; hetero-tetramer of 150 kDa; also called 13C3-VH1VL1; Antibody 1 VH1VL1

Assay [1] has as its target B1. In words: competitive ELISA, antibody 0.02 µg/ml pre-incubated with the peptide, free antibody read on coated Aβ1-42. The procedure:
The antibody/antigen mixture is then deposited in each well and the microtitration plate is incubated for 1 h at room temperature. The free, uncomplexed antibody is determined according to the same ELISA protocol as described previously.
On the technique in general: ELISA stands for enzyme-linked immunosorbent assay.

The target in another assay is T1, fibrils of IAPP. In words: ELISA on coated fibrils (IAPP at 0.5 µg/ml).

We go through three molecules from US20120177639A1 (Sanofi, published 2012).

Experimental for fibrils of IAPP: 50 μl of fibrils of Aβ1-42 at 1 μg/ml and IAPP at 0.5 μg/ml are deposited in each well of a microtitration plate. The ELISA protocol is applied using serial dilutions of the humanized antibody starting from 10 μg/ml.

For GSNKGAIIGLM (peptide, UniProt P05067 696-706, looked up, range 25-35) [peptide Aβ25-35], the binding result in assay [1] is “no binding”.

Turning to DAEFRHDSGYEVHHQK (peptide, UniProt P05067 672-687, looked up, range 1-16) [peptide Aβ1-16], the binding result in assay [1] is “no binding”.

In the case of B1, the binding result in the assay with fibrils of IAPP is given as “no binding”.
